# In US20200231679A1 (DRAGONFLY THERAPEUTICS, published 2020):
# T1: recombinant cynomolgus NKG2D-Fc fusion protein (cynomolgus; human, UniProt P61252 73-216)
# T1 construct: extracellular domain; not shown: human IgG1 Fc domain
# T1 sequence (looked up): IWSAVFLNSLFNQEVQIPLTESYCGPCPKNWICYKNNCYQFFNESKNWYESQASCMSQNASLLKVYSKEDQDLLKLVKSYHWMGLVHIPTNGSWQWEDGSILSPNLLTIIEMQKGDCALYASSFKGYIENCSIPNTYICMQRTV
# Molecular target: T1, recombinant cynomolgus NKG2D-Fc fusion …
# Experiment: ELISA on coated NKG2D-Fc
row,binding result,Binder
1,binds,"ADI-29403 (antibody, V domains shown) VH: QVQLQQWGAGLLKPSETLSLTCAVYGGSFSGYYWSWIRQPPGKGLEWIGEIDHSGSTNYNPSLKSRVTISVDTSKNQFSLKLSSVTAADTAVYYCARARGPWSFDPWGQGTLVTVSS VL: not shown"
2,binds,"ADI-27705 (antibody, V domains shown) VH: QVQLQQWGAGLLKPSETLSLTCAVYGGSFSGYYWSWIRQPPGKGLEWIGEIDHSGSTNYNPSLKSRVTISVDTSKNQFSLKLSSVTAADTAVYYCARARGPWSFDPWGQGTLVTVSS VL: not shown"
3,binds,"ADI-29405 (antibody, V domains shown) VH: QVQLQQWGAGLLKPSETLSLTCAVYGGSFSGYYWSWIRQPPGKGLEWIGEIDHSGSTNYNPSLKSRVTISVDTSKNQFSLKLSSVTAADTAVYYCARARGPWSFDPWGQGTLVTVSS VL: DIQMTQSPSTLSASVGDRVTITCRASQSISSWLAWYQQKPGKAPKLLIYKASSLESGVPSRFSGSGSGTEFTLTISSLQPDDFATYYCQQYGSFPTFGGGTKVEIK"
4,binds,"ADI-27740 (antibody, V domains shown, also called A40) VH: QVQLQQWGAGLLKPSETLSLTCAVYGGSFSGYYWSWIRQPPGKGLEWIGEIDHSGSTNYNPSLKSRVTISVDTSKNQFSLKLSSVTAADTAVYYCARARGPWSFDPWGQGTLVTVSS VL: DIQMTQSPSTLSASVGDRVTITCRASQSIGSWLAWYQQKPGKAPKLLIYKASSLESGVPSRFSGSGSGTEFTLTISSLQPDDFATYYCQQYHSFYTFGGGTKVEIK"
5,binds,"ADI-28226 (antibody, V domains shown, also called C26) VH: QVQLQQWGAGLLKPSETLSLTCAVYGGSFSGYYWSWIRQPPGKGLEWIGEIDHSGSTNYNPSLKSRVTISVDTSKNQFSLKLSSVTAADTAVYYCARARGPWSFDPWGQGTLVTVSS VL: DIQMTQSPSTLSASVGDRVTITCRASQSISSWLAWYQQKPGKAPKLLIYKASSLESGVPSRFSGSGSGTEFTLTISSLQPDDFATYYCQQYGSFPITFGGGTKVEIK"
6,binds,"ADI-29426 (antibody, V domains shown) VH: QVQLQQWGAGLLKPSETLSLTCAVYGGSFSGYYWSWIRQPPGKGLEWIGEIDHSGSTNYNPSLKSRVTISVDTSKNQFSLKLSSVTAADTAVYYCARARGPWSFDPWGQGTLVTVSS VL: DIQMTQSPSTLSASVGDRVTITCRASQSIGSWLAWYQQKPGKAPKLLIYKASSLESGVPSRFSGSGSGTEFTLTISSLQPDDFATYYCQQYHSFPTFGGGTKVEIK"
7,binds,"ADI-29424 (antibody, V domains shown) VH: QVQLQQWGAGLLKPSETLSLTCAVYGGSFSGYYWSWIRQPPGKGLEWIGEIDHSGSTNYNPSLKSRVTISVDTSKNQFSLKLSSVTAADTAVYYCARARGPWSFDPWGQGTLVTVSS VL: DIQMTQSPSTLSASVGDRVTITCRASQSISSWLAWYQQKPGKAPKLLIYKASSLESGVPSRFSGSGSGTEFTLTISSLQPDDFATYYCQQYDSFITFGGGTKVEIK"
8,binds,"ADI-29404 (antibody, V domains shown, also called F04) VH: QVQLQQWGAGLLKPSETLSLTCAVYGGSFSGYYWSWIRQPPGKGLEWIGEIDHSGSTNYNPSLKSRVTISVDTSKNQFSLKLSSVTAADTAVYYCARARGPWSFDPWGQGTLVTVSS VL: DIQMTQSPSTLSASVGDRVTITCRASQSISSWLAWYQQKPGKAPKLLIYKASSLESGVPSRFSGSGSGTEFTLTISSLQPDDFATYYCEQYDSYPTFGGGTKVEIK"
9,binds,"ADI-27743 (antibody, V domains shown) VH: QVQLQQWGAGLLKPSETLSLTCAVYGGSFSGYYWSWIRQPPGKGLEWIGEIDHSGSTNYNPSLKSRVTISVDTSKNQFSLKLSSVTAADTAVYYCARARGPWSFDPWGQGTLVTVSS VL: not shown"
10,binds,"ADI-29447 (antibody, V domains shown, also called F47) VH: QVQLQQWGAGLLKPSETLSLTCAVYGGSFSGYYWSWIRQPPGKGLEWIGEIDHSGSTNYNPSLKSRVTISVDTSKNQFSLKLSSVTAADTAVYYCARARGPWSFDPWGQGTLVTVSS VL: DIQMTQSPSTLSASVGDRVTITCRASQSISSWLAWYQQKPGKAPKLLIYKASSLESGVPSRFSGSGSGTEFTLTISSLQPDDFATYYCQQYDTFITFGGGTKVEIK"
11,binds,"ADI-27741 (antibody, V domains shown) VH: QVQLQQWGAGLLKPSETLSLTCAVYGGSFSGYYWSWIRQPPGKGLEWIGEIDHSGSTNYNPSLKSRVTISVDTSKNQFSLKLSSVTAADTAVYYCARARGPWSFDPWGQGTLVTVSS VL: DIQMTQSPSTLSASVGDRVTITCRASQSIGSWLAWYQQKPGKAPKLLIYKASSLESGVPSRFSGSGSGTEFTLTISSLQPDDFATYYCQQSNSYYTFGGGTKVEIK"
12,binds,"ADI-29425 (antibody, V domains shown) VH: QVQLQQWGAGLLKPSETLSLTCAVYGGSFSGYYWSWIRQPPGKGLEWIGEIDHSGSTNYNPSLKSRVTISVDTSKNQFSLKLSSVTAADTAVYYCARARGPWSFDPWGQGTLVTVSS VL: not shown"
13,binds,"ADI-29421 (antibody, V domains shown) VH: QVQLQQWGAGLLKPSETLSLTCAVYGGSFSGYYWSWIRQPPGKGLEWIGEIDHSGSTNYNPSLKSRVTISVDTSKNQFSLKLSSVTAADTAVYYCARARGPWSFDPWGQGTLVTVSS VL: not shown"
14,binds,"ADI-29407 (antibody, V domains shown) VH: QVQLQQWGAGLLKPSETLSLTCAVYGGSFSGYYWSWIRQPPGKGLEWIGEIDHSGSTNYNPSLKSRVTISVDTSKNQFSLKLSSVTAADTAVYYCARARGPWSFDPWGQGTLVTVSS VL: DIQMTQSPSTLSASVGDRVTITCRASQSISSWLAWYQQKPGKAPKLLIYKASSLESGVPSRFSGSGSGTEFTLTISSLQPDDFATYYCQQYQSFPTFGGGTKVEIK"
15,binds,"ADI-29401 (antibody, V domains shown) VH: QVQLQQWGAGLLKPSETLSLTCAVYGGSFSGYYWSWIRQPPGKGLEWIGEIDHSGSTNYNPSLKSRVTISVDTSKNQFSLKLSSVTAADTAVYYCARARGPWSFDPWGQGTLVTVSS VL: DIQMTQSPSTLSASVGDRVTITCRASQSIGSWLAWYQQKPGKAPKLLIYKASSLESGVPSRFSGSGSGTEFTLTISSLQPDDFATYYCQQYDIYPTFGGGTKVEIK"
16,binds,"ADI-29429 (antibody, V domains shown) VH: QVQLQQWGAGLLKPSETLSLTCAVYGGSFSGYYWSWIRQPPGKGLEWIGEIDHSGSTNYNPSLKSRVTISVDTSKNQFSLKLSSVTAADTAVYYCARARGPWSFDPWGQGTLVTVSS VL: DIQMTQSPSTLSASVGDRVTITCRASQSIGSWLAWYQQKPGKAPKLLIYKASSLESGVPSRFSGSGSGTEFTLTISSLQPDDFATYYCQQYELYSYTFGGGTKVEIK"
17,binds,"ADI-29399 (antibody, V domains shown) VH: QVQLQQWGAGLLKPSETLSLTCAVYGGSFSGYYWSWIRQPPGKGLEWIGEIDHSGSTNYNPSLKSRVTISVDTSKNQFSLKLSSVTAADTAVYYCARARGPWSFDPWGQGTLVTVSS VL: not shown"
18,binds,"ADI-29419 (antibody, V domains shown) VH: QVQLQQWGAGLLKPSETLSLTCAVYGGSFSGYYWSWIRQPPGKGLEWIGEIDHSGSTNYNPSLKSRVTISVDTSKNQFSLKLSSVTAADTAVYYCARARGPWSFDPWGQGTLVTVSS VL: not shown"
19,binds,"ADI-29378 (antibody, V domains shown, also called E78) VH: QVQLVQSGAEVKKPGASVKVSCKASGYTFTSYYMHWVRQAPGQGLEWMGIINPSGGSTSYAQKFQGRVTMTRDTSTSTVYMELSSLRSEDTAVYYCAREGAGFAYGMDYYYMDVWGKGTTVTVSS VL: EIVLTQSPATLSLSPGERATLSCRASQSVSSYLAWYQQKPGQAPRLLIYDASNRATGIPARFSGSGSGTDFTLTISSLEPEDFAVYYCQQSDNWPFTFGGGTKVEIK"
20,binds,"ADI-27749 (antibody, V domains shown, also called A49) VH: EVQLVESGGGLVKPGGSLRLSCAASGFTFSSYSMNWVRQAPGKGLEWVSSISSSSSYIYYADSVKGRFTISRDNAKNSLYLQMNSLRAEDTAVYYCARGAPMGAAAGWFDPWGQGTLVTVSS VL: DIQMTQSPSSVSASVGDRVTITCRASQGISSWLAWYQQKPGKAPKLLIYAASSLQSGVPSRFSGSGSGTDFTLTISSLQPEDFATYYCQQGVSFPRTFGGGTKVEIK"
21,binds,"ADI-27727 (antibody, V domains shown) VH: QVQLVQSGAEVKKPGSSVKVSCKASGGTFSSYAISWVRQAPGQGLEWMGGIIPIFGTANYAQKFQGRVTITADESTSTAYMELSSLRSEDTAVYYCARGDSSIRHAYYYYGMDVWGQGTTVTVSS VL: not shown"
